This note sets out measurements from paper PMC10954734, “Structure of antiviral drug bulevirtide bound to hepatitis B and D virus receptor protein NTCP” (Nature Communications, 2024).

The target of this test is human Na+-taurocholate co-transporting polypeptide (NTCP), detergent-solubilized, 3C-cleaved (human) (UniProt Q14973).
human Na+-taurocholate co-transporting polypeptide (NTCP), detergent-solubilized, 3C-cleaved (human), sequence (Q14973 whole entry): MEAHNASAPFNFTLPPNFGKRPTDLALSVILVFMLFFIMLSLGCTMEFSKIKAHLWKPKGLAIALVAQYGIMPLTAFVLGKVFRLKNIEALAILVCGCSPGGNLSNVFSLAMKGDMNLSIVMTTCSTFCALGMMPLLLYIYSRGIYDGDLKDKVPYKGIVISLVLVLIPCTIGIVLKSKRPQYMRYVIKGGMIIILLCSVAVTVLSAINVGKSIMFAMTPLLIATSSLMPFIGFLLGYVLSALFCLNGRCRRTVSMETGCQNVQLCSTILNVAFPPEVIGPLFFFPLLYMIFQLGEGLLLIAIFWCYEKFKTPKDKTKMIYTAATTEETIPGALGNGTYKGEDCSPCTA

As for bulevirtide (BLV) (peptide), the inhibition of 3H-taurocholate transport (1 uM TC, 8 min) into Flp-In T-Rex cells stably expressing NTCP at increasing concentrations of BLV; at high concentrations BLV fully abolished transport was 195 nM.
